Assays:
[1] = biological target: FGFR1 kinase domain and tail (Homo sapiens) (UniProt P11362); conditions: cited from earlier work
[2] = biological target: GyrB.FGFR1KD.TC, activated (incubated with ATP, autophosphorylated) (UniProt P11362); test: FRET or BRET; TR-FRET, lifetime of donor mTFP in a quartz cuvette; GyrB.FGFR1KD.TC (1 uM) tagged with FlAsH-EDT2 and mTFP.nSH2 (1 uM); 40 mM Tris-HCl pH 8.0, 20 mM MgCl2, 20 mM NaCl, 100 uM TCEP, 100 uM Na3VO4; with 50 uM ATP, ambient conditions, 30 min

| decrease in donor lifetime [2] [ps] | Substance | Kd [1] [nM] |
| --- | --- | --- |
| – | PLCγ1 nSH2 (from UniProt P19174) | 5 |
| 500 | mTurquoise.nSH2 fusion protein (mTFP.nSH2) (domain or fragment) | – |
